Results from the RNAGym collection of RNA variant scans (doi:10.1073/pnas.2313332121).

B1: TPR t1 (parent)
chain: GACCAAUCUGCCCUCAGAGCUCGAGAACAUCUUCGGAUGCAGAGGAGGCAGGCUUCGGUGGCGCGAUAGCGCCAACGUCCUCAACCUCCAAUGCAUCCCACCACAUGAUGAUGCCUGAAGAGCCUUGGUUUUUUG

Variants of: B1
Experiment: polymerase ribozyme fitness, log enrichment relative to wild type (log ratio); higher = more active; in vitro selection for triplet polymerase activity
Procedure, shortened: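 Mutant libraries for each subunit of a heterodimeric triplet polymerase ribozyme were made by PCR and then transcribed. Each library underwent one round of in vitro selection in triplicate: annealing with a biotinylated primer, the partner subunit and triplets, frozen incubation at −7 °C, gel excision of extended constructs, streptavidin-bead capture and RT-PCR. Input and output libraries were Illumina-sequenced, and only genotypes with ≥10 input reads and ≥1 read per output were kept. Fitness is the logarithm, base 2, of genotype enrichment over wild-type enrichment, computed from inverse-variance-weighted replicate averages.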

Point of comparison: G10U G113C G120U A121C, “polymerase ribozyme fitness (log ratio)” value -2.24. Against it:
- C11A C28U C53U C89A — lower, -5.79
- G10U U32C C56A C72A — higher, -1.43
- G10U G19C A37U C72A — higher, -1.54
- G10U C40A C76G A83U C101A — lower, -3.85
- G10C U38G C85U G122A C123G — higher, 0.725
- C11A C79U G120A — higher, 1.38
- G10U C40G C124U U129A — higher, -1.91
- G10C C73G C80U — lower, -3.34
- C11A C22A C56G U78A U112A U131A — within 0.2 log units, -2.4
- G10U C72A C124G — higher, 1
- G10U G122A — higher, 0.462
- G10C G42C G61C C123A G128A — lower, -6.33
- G10U G52U G61U G127A — lower, -2.92
- G10C G60U A118G — higher, -1.45
- G10U A43C C76U A90C C115A — lower, -2.83
- G10C C56G C123U — higher, 1.26
- G10C C70U — higher, -1.63
- G10U A18G A37U C40U U112A U126C — higher, -1.57
- G10U C20A C56U — lower, -2.94
- G10U A37U C102G C115A — lower, -6.5
- C11A C13G C20U C53U U78G — lower, -2.65
- G10U C40G G48U C102U — lower, -3.36
- C11A C13G C31U A46U U109G — lower, -7.98
- C11A C53G G69U C72U — higher, -1.37
- C11A C20U — higher, -1.95
- G10U C56U G117C G122U — lower, -3.32
- G10U C15G G61A — higher, -1.63
- C11A C80G C88U — lower, -6.42
- G10U A26U G42A U106A U125G — lower, -4.36
- G10C C49G U81C G120C — lower, -4.69
- G10C G52U G58C A84U — within 0.2 log units, -2.42
- G10C C62A U78C — higher, -1.58
- G10U C20A A66G — lower, -4.29
- G10U U14A U132A — higher, -1.64
- G10C G39C C49G A111U — lower, -4.94
- G10U A18U A29U U54A C73A A121C — higher, -1.7
- G10U C56A C73G — within 0.2 log units, -2.43
- G10C C49G G61A U112A A118U — higher, 1.17
- C11A A118G — higher, -1.55
- C11A A95U U96A C101G U106C C124A — lower, -3.67
- G10U G42U C104A G120C — lower, -4.1
- G10U C88U — higher, -0.654
- G10C C85A — higher, -0.827
- G10U C64U G113C — higher, -1.87
- C11A C12U U38A G69C — lower, -2.89
- G10U G39U — higher, -0.472
- C11A A37G U59A U131C — higher, -1.86
- G10U C88G G110C — lower, -5.78
- G10U U92C — higher, -0.873
- G10U U92G — lower, -3.71
- C11A C40U G45A C70A G120C — higher, -1.21
- C11A A16G G23U G39C C76U A95C G113U C114G — lower, -7.17
- G10U G42A G61C — lower, -5.15
- G10C C49A G71U — higher, -1.17
- G10U A29U C70G G113A — lower, -4.17
- C11A A37U G51U C56U A68U C98A U109A — lower, -8.64
- C11A C49U C94G — lower, -2.46
- C11A C56G — higher, -1.77
- G10C U32C G113U — lower, -3.81
- G10C C64U C123G U133A — higher, 1.47
- C11A C89A G93A A118G — lower, -3.96
- C11A C88G — lower, -2.99
- C11A C40U — within 0.2 log units, -2.35
- G10C U87G C115U A119G G120C U131G — higher, -1.59
- G10U C12G C89G U96A G110U U112A G117C — lower, -5.26
- G10U G110U C114U — lower, -3.42
- G10U A37C C85A — higher, -1.32
- G10U U112G C123G — higher, 0.673
- G10U G48U G63A C85U C86G — lower, -3.3
- C11A C72G C79A C85A A121U — higher, -1.86
- G10C U54C G93C C102A — lower, -5.34
- C11A C13U G63C A83U — higher, -1.91
- C11A C82G C101A A121C — higher, -0.28
- G10U G69U U112G C123G — higher, 1.15
- G10U C13G C72U — higher, -0.677
- C11A C49U C102A — lower, -3.16
- G10C G110U — lower, -2.66
- G10U C115A — higher, -0.281
- G10U C115G — higher, -1.99
- G10U G120U — higher, 1.99
- G10U C34U G44C U112C — lower, -5
- C11A C22U A91U C102U C115U G135U — lower, -6.8
- G10C G57A C88U U112G — lower, -3.48
- G10U C13U C73U C102G A119U C124A — lower, -5.74
- G10C C49A G51C G57C C72U — lower, -4.25
- G10U C12G G17U G113A U126G — lower, -4.16
- G10U G48U — higher, -0.243
- G10U G93U U129C — higher, -1.98
- G10U C11G G52U U109C C114U — lower, -5.43
- C11A C28G C80U — lower, -3.39
- G10C C40G — higher, -1.34
- G10U A103U — lower, -4.38
- G10C G39A C76U A84U U87A — within 0.2 log units, -2.28
- C11A C76A — lower, -2.77
- C11A C49G G60A A75U G93U — lower, -3.77
- G10U C34A G47A — lower, -3.85
- G10U G71U C94A — higher, -1.09
- C11A C13U C53A — higher, -1.65
- G10C G35A U59C U112A — lower, -5.77
- G10C C49A G51C G57C C72U C115G — lower, -3.99
- G10C G69U C79G C80U — lower, -2.66
- G10U C20U A43C A50C C79G C88U A121G — lower, -4.86
- G10U C28U — within 0.2 log units, -2.12
- G10U A29U C53G — lower, -2.58
- G10C U109A — lower, -6.66
- G10U C13U U38G C123A — higher, 1.31
- G10C G36U A50C U78G C86A — lower, -4.45
- G10C U106C G127A G135U — lower, -3.46
- C11A C12U G57U U87G G93A C102A — lower, -4.56
- G10U A105C — lower, -2.95
- C11A C49G C64U A121U — higher, 0.957
- C11A C89U — lower, -2.53
- G10C G60U — higher, -0.819
- G10U G63A — higher, -1.08
- G10U G63C — higher, -0.933
- C11A C12U G25U C56U G69C C98U G110A — lower, -6.12
- G10U G42A G45A G77C U78G U96C G128A U131G — lower, -3.17
- G10U C49U G63A A100C — lower, -3.83
- C11A A91C — within 0.2 log units, -2.43
- G10U G60A C123G C124A — higher, 3.33
- C11A A119U — higher, -1.67
- G10U C15G G120A — higher, -1.69
- G10U C11A G36U U78G C115G — lower, -5.09
- C11A C49U C85A U106A — lower, -3.44
- C11A C13U C53G A90C A91G — lower, -3.8
- G10C G71U — higher, -1.91
- C11A C56A C64U U126G — lower, -4.75
- C11A C49A U59A A68G A91G — lower, -6.83
- G10U U14A G113C G122A — lower, -3.62
- G10U G60U U112A C114U — higher, -1.17
- C11A C72A A91G U126G — lower, -5.33
- C11A C12G C73A C104U G120A — higher, -1.09
- G10U G42U — lower, -2.78
- G10U G63U C79U U132A — higher, -0.795
- G10U C11U C73A C88A U126C — higher, -2.02
- G10U C20U U32A U125G — lower, -4.96
- C11A A16U C40U C56A — lower, -4.65
- C11A C34A C88G U106C — lower, -5.02
- G10C C80A U130G — lower, -3.78
- G10C G61U C114U — higher, -1.8
- C11A C56A C89U — higher, -1.96
- C11A C53U C76U C80G G117C — lower, -7.25
- G10U G71A G120U — higher, 1.24
- C11A C49U G93A U129A — lower, -3.29
- G10U G44U C53U U96A U109C — lower, -7.37
- C11A A24C G122A C123G — lower, -5.76
- C11A C53U C56A C76G — lower, -3.44
- G10U C11G C62G — higher, -1.22
- C11A C22G G48A A119G — lower, -3.23
- G10U U30C — within 0.2 log units, -2.43
- G10U C22U C98U — lower, -5.53
- G10U C40A G77A G128U — lower, -3.6
- G10U C15U A18U C49A C70U C80A G93U G117U — lower, -7.04
- G10U C76A G127C — within 0.2 log units, -2.18
- G10U A50U C89G — lower, -2.96
- G10U C40G G44C A111C — lower, -4.09
- G10U C22G U106A G120C — lower, -2.7
- C11A C72A A91G C101U G113C U132C — lower, -4.14
- G10U A121U — higher, 1.92
- G10U A41C A91U G120C U129C — higher, -1.99
- G10C G120C — higher, 1.04
- G10U G61C — higher, -1.82
- G10U U32G C102U C124U U126G — lower, -7.39
- C11A C13U A50U C62U — lower, -2.9
- G10U A46C C70G C94U U133A G135U — lower, -4.06
- G10U C34A G69U G122A — higher, 0.552
